The supplement of paper PMC10724198
± gives the standard deviation of the averaged measurements.

Columns and labels:
[1] = system: Saccharomyces cerevisiae; assay: protein stability index of tFT-peptide fusion (C-terminal peptide) (PSI (0-1 scale)); higher = more stable (slower turnover)
Experimental: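 MPS profiling in S. cerevisiae of the tFT-X12 degron library: putative degron peptides plus stable controls, 12 aa, fused to the C-terminus of a sfGFP-mCherry timer. Cells are FACS-sorted into 8 mCherry/sfGFP bins and deep-sequenced. PSI runs from 0 (unstable) to 1 (stable). Backgrounds are wild type, das1Δ and doa10Δ at 30 °C, and wild type, das1Δ, cdc34-1 and cdc53-1 at 37 °C; 2-3 technical replicates each.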

[2] = system: Saccharomyces cerevisiae; assay: as above; settings: genetic background: wild type; temperature: 30 C
[3] = genetic background: cdc34-1, temperature: 37 C
[4] = genetic background: cdc53-1, temperature: 37 C
[5] = genetic background: das1 deletion, temperature: 30 C
[6] = genetic background: das1 deletion, temperature: 37 C
[7] = genetic background: doa10 deletion, temperature: 30 C
[8] = genetic background: wild type, temperature: 30 C
[9] = genetic background: wild type, temperature: 37 C
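Also: PSI is a weighted mean of sequencing reads over stability bins, variants kept only with over 10 reads, mCherry proximal and sfGFP distal, peptide attached via GGGS linker.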

| Sequence | protein stability index [1, 3] | protein stability index [1, 4] | protein stability index [1, 5] | protein stability index [1, 6] | protein stability index [1, 7] | protein stability index [1, 8] | protein stability index [1, 9] | protein stability index [2] |
| --- | --- | --- | --- | --- | --- | --- | --- | --- |
| RGSRLVPRLLRP | 0.686 ± 0.028 | 0.705 ± 0.012 | 0.648 ± 0.015 | 0.713 ± 0.0012 | 0.64 ± 0.02 | 0.656 ± 0.03 | 0.677 ± 0.0057 | 0.71 ± 0.024 |
| AASRVIYLLNLF | 0.653 ± 0.034 | 0.753 ± 0.008 | 0.6272 ± 0.0031 | 0.736 ± 0.027 | 0.197 ± 0.0028 | 0.232 ± 0.018 | 0.473 ± 0.027 | 0.3446 ± 0.0022 |
| VCAFCLFFVPLP | 0.5888 ± 0.00072 | 0.668 ± 0.023 | 0.425 ± 0.038 | 0.6497 ± 0.0021 | 0.3831 ± 0.0035 | 0.413 ± 0.022 | 0.593 ± 0.012 | 0.47 ± 0.013 |
| FGVECDLCLFCC | 0.617 ± 0.07 | 0.6837 ± 0.0031 | 0.572 ± 0.0088 | 0.692 ± 0.03 | 0.2392 ± 0.0022 | 0.257 ± 0.014 | 0.46 ± 0.015 | 0.376 ± 0.018 |
| LFRFSRLFLFVL | 0.36 ± 0.034 | 0.446 ± 0.11 | 0.578 ± 0.0093 | 0.74 ± 0.028 | 0.214 ± 0.042 | 0.153 ± 0.034 | 0.201 ± 0.017 | 0.207 ± 0.061 |
| LLGDFAVLTCVF | 0.468 ± 0.049 | 0.496 ± 0.039 | 0.372 ± 0.024 | 0.4825 ± 0.0011 | 0.343 ± 0.0054 | 0.377 ± 0.027 | 0.465 ± 0.022 | 0.453 ± 0.0086 |
| WFLVLLFFWFLL | 0.524 ± 0.0097 | 0.628 ± 0.055 | 0.541 ± 0.0066 | 0.618 ± 0.028 | 0.55 ± 0.036 | 0.533 ± 0.022 | 0.566 ± 0.0068 | 0.48 ± 0.073 |
| FRHKLSLGLVIV | 0.54 ± 0.037 | 0.555 ± 0.073 | 0.396 ± 0.029 | 0.56 ± 0.0072 | 0.347 ± 0.012 | 0.377 ± 0.028 | 0.534 ± 0.014 | 0.507 ± 0.011 |
| RMCPWVSVRVGV | 0.558 ± 0.028 | 0.5891 ± 0.0027 | 0.382 ± 0.036 | 0.5922 ± 0.0023 | 0.3537 ± 0.0019 | 0.391 ± 0.013 | 0.5825 ± 0.00065 | 0.485 ± 0.0071 |
| CSPSCNIVRLVS | 0.527 ± 0.016 | 0.723 ± 0.025 | 0.632 ± 0.02 | 0.712 ± 0.008 | 0.11 ± 0.018 | 0.114 ± 0.017 | 0.198 ± 0.059 | 0.294 ± 0.022 |
